Measured values published in article PMC9515098, “Structural basis for the activity regulation of a potassium channel AKT1 from Arabidopsis” (Nature Communications, 2022).

Tests used:
[1] = molecular target: the molecule itself; experiment: cryo-EM structure; single-particle cryo-EM of AKT1 co-expressed with CIPK23 and CBL1 in HEK293 cells; 0.08% digitonin, 0.5 mM CaCl2, 5 mM MnCl2, 1 mM ATP, 1 mM sodium orthovanadate; map at about 11 Å
[2] = molecular target: the molecule itself; experiment: cryo-EM structure; single-particle cryo-EM of the purified channel from Sf9 cells; 25 mM Tris-HCl pH 7.4, 150 mM KCl, 0.1% digitonin
[3] = molecular target: the molecule itself; experiment: cryo-EM structure; cryo-EM, 2D classification only (preliminary analysis); no map or model reported

B1: Phosphorylated AKT1 (AKT1 co-expressed with CIPK23 and CBL1 in HEK293 cells) (natural protein)
chain: not shown
modifications: phosphoserine at Ser26 and Ser338 (found by mass spectrometry after co-expression with CIPK23 and CBL1)
notes: Potassium channel AKT1, Arabidopsis thaliana, UniProt Q38998
binding result [1]: binds

B2: AKT1 Asp379Ala, constitutively-active variant (Flag-tagged, from Sf9 cells) (natural protein)
chain: not shown
notes: Potassium channel AKT1, Arabidopsis thaliana, UniProt Q38998, with the point mutation Asp379Ala; Two cryo-EM classes (4-fold and 2-fold symmetric cytoplasmic domain); also called AKT1-D379A; constitutively-active mutant; source: Sf9 insect cells (Bac-to-bac baculovirus), purified by the same protocol as AKT1
binding result [2]: binds

B3: AKT1_(16-857), AKT1 lacking the N-terminal 15 residues (domain or fragment)
chain: not shown
notes: source: purified
binding result [3]: binds

B4: Arabidopsis thaliana potassium channel AKT1, wild type (Flag-tagged, from Sf9 cells) (natural protein)
chain: not shown
notes: Potassium channel AKT1, Arabidopsis thaliana, UniProt Q38998; Homotetramer in the cryo-EM structure; also called WT AKT1; AKT1 WT
stoichiometry N [2]: 4
